Test results taken from paper PMC3571872 (Molecular Biology of the Cell, 2013).
Where a chain is given by its changes, count along the chain named. Names and notes keep the numbering of the source. Square brackets hold non-standard residues; d marks the D form. pS = N[C@@H](COP(=O)(O)O)C(=O)O

B1: Gga2p VHS-GAT-His6 (domain or fragment, yeast, UniProt P38817 1-336, looked up)
chain: MSHPHSHSIYLSELPVRKPQALGNPLLRKIQRACRMSLAEPDLALNLDIADYINEKQGAAPRDAAIALAKLINNRESHVAIFALSLLDVLVKNCGYPFHLQISRKEFLNELVKRFPGHPPLRYSKIQRLILTAIEEWYQTICKHSSYKNDMGYIRDMHRLLKYKGYAFPKISESDLAVLKPSNQLKTASEIQKEQEIAQAAKLEELIRRGKPEDLREANKLMKIMAGFKEDNAVQAKQAISSELNKLKRKADLLNEMLESPDSQNWDNETTQELHSALKVAQPKFQKIIEEEQEDDALVQDLLKFNDTVNQLLEKFNLLKNGDSNAASQIHPSHVS
B2: Phosphopeptide PP2 (peptide)
peptide: Ac-CTNENPF[pS]DPIKQKF-NH2
SMILES: CC[C@H](C)[C@H](NC(=O)[C@@H]1CCCN1C(=O)[C@H](CC(=O)O)NC(=O)[C@H](COP(=O)(O)O)NC(=O)[C@H](Cc1ccccc1)NC(=O)[C@@H]1CCCN1C(=O)[C@H](CC(N)=O)NC(=O)[C@H](CCC(=O)O)NC(=O)[C@H](CC(N)=O)NC(=O)[C@@H](NC(=O)[C@H](CS)NC(C)=O)[C@@H](C)O)C(=O)N[C@@H](CCCCN)C(=O)N[C@@H](CCC(N)=O)C(=O)N[C@@H](CCCCN)C(=O)N[C@@H](Cc1ccccc1)C(N)=O
B3: S780D GST-Kex2p C-tail fusion protein (domain or fragment, yeast, UniProt P13134 700-814, looked up)
chain: KSRRRIRRSRAETYEFDIIDTDSEYDSTLDNGTSGITEPEEVEDFDFDLSDEDHLASLSSSENGDAEHTIDSVLTNENPFDDPIKQKFPNDANAESASNKLQELQPDVPPSSGRS
B4: WT GST-Kex2p C-tail fusion protein (domain or fragment, yeast, UniProt P13134 700-814, looked up)
chain: B3 chain with D81S

What was measured:
[1] = target: S780A GST-Kex2p C-tail fusion protein (yeast) (UniProt P13134); assay: pull-down
[2] = target: S780A GST-Kex2p C-tail fusion protein (yeast) (UniProt P13134); assay: ITC
[3] = target: B3; assay: pull-down
Gga2p VHS-GAT-His6 [4] = target: B1; assay: pull-down
Gga2p VHS-GAT-His6 [5] = target: B1; assay: ITC

Row | Molecule | binding result (Gga2p VHS-GAT-His6 [4]) | Kd (Gga2p VHS-GAT-His6 [5]) | other results
1 | Gga2p VHS-GAT-His6 (from UniProt P38817 1-336) (domain or fragment) | – | – | fold lower binding than the WT tail [1]: 2 fold; t1/2 of dissociation [1]: 40 min; Kd [2]: 400 µM
2 | B1 | – | – | fold higher binding than the WT tail [3]: 2 fold
3 | B2 | binds | – | –
4 | Ac-CLTNENPFSDPIKQKF-NH2 [Nonphosphorylated peptide NPP] | binds | – | –
5 | B3 | – | 6.6 µM | –
6 | B4 | – | 10 µM | –
